Assay results: patent publication US20150307603A1 (MODIQUEST B V, published 2015)

Experiments:
[1] = target: T1, huPAD2-deiminated human recombinant histone 2B (human); experiment: ELISA, Ab 0.016 ug/well
T1 construct: also called H2B/p2
Text: (§1) The resulting OD (y-axis) is a measure for antibody binding. H1-recombinant histone 1; H1/p2-huPAD2 recombinant histone 1; H1/p4-huPAD4 recombinant histone 1, and so forth (x-axis).

[2] = target: T2, human recombinant histone 2B (human); experiment: ELISA, Ab 0.016 ug/well
T2 construct: Non-deiminated; also called H2B
Text: as §1

[3] = target: T3, huPAD4-deiminated human recombinant histone 3 (human); experiment: ELISA, Ab 0.016 ug/well
T3 construct: also called H3/p4
Text: as §1

[4] = target: human recombinant histone 4 (human, UniProt P62805 2-103); experiment: ELISA, Ab 0.016 ug/well
Text: as §1

[5] = target: T4, human recombinant histone 2A (human); experiment: ELISA, Ab 0.016 ug/well
T4 construct: Non-deiminated; also called H2A
Text: as §1

[6] = target: T5, huPAD2-deiminated human recombinant histone 3 (human); experiment: ELISA, Ab 0.016 ug/well
T5 construct: also called H3/p2; histone 3/p2
Text: as §1

[7] = target: T6, huPAD2-deiminated human recombinant histone 2A (human); experiment: ELISA, Ab 0.016 ug/well
T6 construct: also called H2A/p2; histone 2A/p2
Text: as §1

[8] = target: T7, huPAD4-deiminated human recombinant histone 2A (human); experiment: ELISA, Ab 0.016 ug/well
T7 construct: also called H2A/p4; histone 2A/p4
Text: as §1

CFC-1 = target: T8, CFC-1; experiment: ELISA, Ab 0.016 ug/well
T8 construct: Positive control for anti-citrulline reactivity; also called cfc1 XG; Cfc1-peptide
Text: as §1

[9] = target: T9, huPAD4-deiminated human recombinant histone 2B (human); experiment: ELISA, Ab 0.016 ug/well
T9 construct: also called H2B/p4
Text: as §1

[10] = target: T7, huPAD4-deiminated human recombinant …; experiment: ELISA, Ab 0.4 ug/well
Text: as §1

B1: RhmAb2.102 (antibody, human IgG1, lambda)
heavy: not shown
light: QSVLTQPPSMSAAPGQKVTISCSGSSSNIGNNYVSWYQQVPGTAPKLLIYDDNKRPSGIPGRFSGSKSATSATLGITGLQAGDEADYYCGSWDDNLSVVLFGGGTKLTVLGQPKAAPSVTLFPPSSEELQANKATLVCLISDFYPGAVTVAWKADSSPVKAGVETTTPSKQSNNKYAASSYLSLTPEQWKSHRSYSCQVTHEGSTVEKTVAPTECS
notes: Human IgG1 lambda; also called Rhm2.102
Q: B1 was tested. Which OD [1] did it give?
A: Its OD is 0.052 OD450.

Q: What about the OD [2] of the same binder?
A: Its OD is 0.065 OD450.

Q: And the OD [3]?
A: The OD was 0.076 OD450.

Q: And the OD [4]?
A: Its OD is 0.061 OD450.

Q: And the OD [5]?
A: Its OD is 0.057 OD450.

Q: And the OD [6]?
A: The OD was 0.155 OD450.

Q: What about the OD [7] of the same binder?
A: The OD was 0.628 OD450.

Q: And the OD [8]?
A: Its OD is 0.426 OD450.

Q: What about the OD (CFC-1) of the same binder?
A: The OD was 0.702 OD450.

Q: And the OD [9]?
A: The OD was 0.052 OD450.

Q: And the OD [10]?
A: The OD was 2.72 OD450.
